Measured values as given in patent US20230287082A1 (published 2023).
Changes are numbered by the printed parent chain.

B1: ΔB7-H6_S3#24-SEED-PGLALA (bispecific antibody, part only; not given: SEED Fc chains and hu225 Fab, part only)
chain, part: DLKVEMMAGGTQITPLNDNVTIFCNIFYSQPLNITIMGITWFWKSLTFDKEVKVFEFYGDHQEAFRPGAIVSPWRLKSGDASLRLPGIQLEEAGEYRCEVVVTPYKAQGTVQLEVVASPAS
B2: ΔB7-H6_S3#29-SEED-PGLALA (bispecific antibody, part only; not given: SEED Fc chains and hu225 EGFR Fab, part only)
chain, part: B1 chain, part with I36V, Y58W, V101I
B3: ΔB7-H6_S3#1-SEED-PGLALA (bispecific antibody, part only; not given: SEED Fc chains and hu225 EGFR Fab, part only)
chain, part: B1 chain, part with I36T, Y58W
B4: ΔB7-H6_S3#3-SEED-PGLALA (bispecific antibody, part only; not given: SEED Fc chains and hu225 Fab, part only)
chain, part: B1 chain, part with I36H, Y58F, V101F
B5: ΔB7-H6_S3#5-SEED-PGLALA (bispecific antibody, part only; not given: SEED Fc chains and hu225 Fab, part only)
chain, part: B1 chain, part with I36V, Y58W
B6: ΔB7-H6_S3#6-SEED-PGLALA (bispecific antibody, part only; not given: SEED Fc chains and hu225 Fab, part only)
chain, part: B1 chain, part with I36H, Y58W
B7: ΔB7-H6_S3#7-SEED-PGLALA (bispecific antibody, part only; not given: SEED Fc chains and hu225 Fab, part only)
chain, part: B1 chain, part with I36H
B8: ΔB7-H6_S3#8-SEED-PGLALA (bispecific antibody, part only; not given: SEED Fc chains and hu225 EGFR Fab, part only)
chain, part: B1 chain, part with I36H, Y58W, V101I, Y105L
B9: ΔB7-H6_S3#9-SEED-PGLALA (bispecific antibody, part only; not given: SEED Fc chains and hu225 EGFR Fab, part only)
chain, part: B1 chain, part with I36H, Y58F
B10: ΔB7-H6_S3#10-SEED-PGLALA (bispecific antibody, part only; not given: SEED Fc chains and hu225 Fab, part only)
chain, part: B1 chain, part with I36S, V101F
B11: ΔB7-H6_S3#11-SEED-PGLALA (bispecific antibody, part only; not given: SEED Fc chains and hu225 Fab, part only)
chain, part: B1 chain, part with I36L, Y58W, V101I, Y105F
B12: ΔB7-H6_S3#12-SEED-PGLALA (bispecific antibody, part only; not given: SEED Fc chains and hu225 Fab, part only)
chain, part: B1 chain, part with I36E, Y58F
B13: ΔB7-H6_S3#17-SEED-PGLALA (bispecific antibody, part only; not given: SEED Fc chains and hu225 EGFR Fab, part only)
chain, part: B1 chain, part with I36S, V101F, Y105L
B14: ΔB7-H6_S3#19-SEED-PGLALA (bispecific antibody, part only; not given: SEED Fc chains and hu225 Fab, part only)
chain, part: B1 chain, part with I36Q, Y58W
B15: ΔB7-H6_S3#21-SEED-PGLALA (bispecific antibody, part only; not given: SEED Fc chains and hu225 Fab, part only)
chain, part: B1 chain, part with I36L, Y58W
B16: ΔB7-H6_S3#22-SEED-PGLALA (bispecific antibody, part only; not given: SEED Fc chains and hu225 Fab, part only)
chain, part: B1 chain, part with I36E, Y58W
B17: ΔB7-H6_S3#23-SEED-PGLALA (bispecific antibody, part only; not given: SEED Fc chains and hu225 Fab, part only)
chain, part: B1 chain, part with I36E
B18: ΔB7-H6_S3#26-SEED-PGLALA (bispecific antibody, part only; not given: SEED Fc chains and hu225 Fab, part only)
chain, part: B1 chain, part with I36T, Y58W, G59D
B19: ΔB7-H6_S3#28-SEED-PGLALA (bispecific antibody, part only; not given: SEED Fc chains and hu225 EGFR Fab, part only)
chain, part: B1 chain, part with I36H, Y58W, Y105L
B20: ΔB7-H6_S3#30-SEED-PGLALA (bispecific antibody, part only; not given: SEED Fc chains and hu225 Fab, part only)
chain, part: B1 chain, part with I36E, Y58W, V101I, Y105L
B21: ΔB7-H6_S2#1-SEED-PGLALA (bispecific antibody, part only; not given: SEED Fc chains and hu225 EGFR Fab, part only)
chain, part: B1 chain, part with I36S
B22: ΔB7-H6_S2#2-SEED-PGLALA (bispecific antibody, part only; not given: SEED Fc chains and hu225 Fab, part only)
chain, part: B1 chain, part with I36S, Y58W, G59D
B23: ΔB7-H6_S2#3-SEED-PGLALA (bispecific antibody, part only; not given: SEED Fc chains and hu225 Fab, part only)
chain, part: B1 chain, part with I36T, Y58W, Y105L
B24: ΔB7-H6_S2#7-SEED-PGLALA (bispecific antibody, part only; not given: SEED Fc chains and hu225 Fab, part only)
chain, part: B1 chain, part with I36S, V101I, A117T

Molecular target: NKp30 on human NK cells (human) (UniProt O14931)
Sequence (O14931 19-201): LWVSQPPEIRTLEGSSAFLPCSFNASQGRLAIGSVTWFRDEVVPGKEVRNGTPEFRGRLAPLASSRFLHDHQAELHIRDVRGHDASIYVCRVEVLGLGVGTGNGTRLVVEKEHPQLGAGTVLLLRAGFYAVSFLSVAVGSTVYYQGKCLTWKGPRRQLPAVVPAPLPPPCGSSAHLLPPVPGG
Assay: cell-based or functional assay

Binder	A431 EC50 with NK cells (pM)	A431 EC50 with PBMC (pM)	A549 EC50 with NK cells (pM)	A549 EC50 with PBMC (pM)	EC50 (pM), A431 lysis with PBMC	EC50 improvement compared to ΔB7-H6 wt
B1	3.55 pM	39.7 pM	35.2 pM	108 pM	9.3 pM	93 fold
B2	–	33.6 pM	–	172 pM	7.6 pM	114 fold
B3	–	–	–	–	61.1 pM	14 fold
B4	–	–	–	–	110 pM	8 fold
B5	–	–	–	–	54.7 pM	16 fold
B6	–	–	–	–	40.8 pM	21 fold
B7	–	–	–	–	45.4 pM	19 fold
B8	–	–	–	–	43.7 pM	20 fold
B9	–	–	–	–	64 pM	14 fold
B10	–	–	–	–	85 pM	10 fold
B11	–	–	–	–	65.8 pM	13 fold
B12	–	–	–	–	165 pM	5 fold
B13	–	–	–	–	427 pM	2 fold
B14	–	–	–	–	240 pM	4 fold
B15	–	–	–	–	36.1 pM	24 fold
B16	–	–	–	–	106 pM	8 fold
B17	–	–	–	–	78 pM	11 fold
B18	–	–	–	–	22.7 pM	38 fold
B19	–	–	–	–	114 pM	8 fold
B20	–	–	–	–	176 pM	5 fold
B21	–	–	–	–	140 pM	6 fold
B22	–	–	–	–	169 pM	5 fold
B23	–	–	–	–	175 pM	5 fold
B24	–	–	–	–	170 pM	5 fold

Molecular target: human NKp30 (human) (UniProt O14931)
Sequence (O14931 19-135 limits assumed): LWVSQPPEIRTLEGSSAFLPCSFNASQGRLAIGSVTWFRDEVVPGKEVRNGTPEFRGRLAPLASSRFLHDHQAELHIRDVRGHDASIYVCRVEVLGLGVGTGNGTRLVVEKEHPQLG
Assay: BLI, ratio to ΔB7-H6_wt

Binder	KD improvement compared to ΔB7-H6 wt	x-fold KD improvement	x-fold Koff improvement
B1	27.4 fold	27.5 fold	16.1 fold
B2	16.5 fold	16.5 fold	9.6 fold
B3	10.5 fold	10.5 fold	5.7 fold
B4	3.9 fold	3.9 fold	1.5 fold
B5	18.2 fold	18.2 fold	9.3 fold
B6	12.4 fold	12.4 fold	6.9 fold
B7	3.7 fold	3.7 fold	3.2 fold
B8	5.1 fold	5.1 fold	3.7 fold
B9	7.1 fold	7.1 fold	3 fold
B10	2.8 fold	2.8 fold	1.7 fold
B11	10.5 fold	10.5 fold	3.9 fold
B12	3.2 fold	3.2 fold	1.9 fold
B13	6.9 fold	6.9 fold	2.9 fold
B14	2.8 fold	2.8 fold	1.7 fold
B15	22.8 fold	22.8 fold	8 fold
B16	4.3 fold	4.3 fold	3.8 fold
B17	3.7 fold	3.7 fold	3.2 fold
B18	3.6 fold	3.6 fold	3.6 fold
B19	0.9 fold	0.9 fold	1.2 fold
B20	3.3 fold	3.3 fold	2.2 fold
B21	2 fold	2 fold	2.2 fold
B22	1.9 fold	1.9 fold	2.3 fold
B23	2.1 fold	2.1 fold	1.6 fold
B24	2.1 fold	2.1 fold	1.7 fold

Molecular target: human NKp30 (human) (UniProt O14931)
Assay: BLI, immunoligand on anti-hFc tip

Binder	Kd	koff	kon
B1	14.9 nM	0.0104 s⁻¹	702000 M⁻¹ s⁻¹
B2	24.8 nM	0.0175 s⁻¹	705000 M⁻¹ s⁻¹
B3	39.1 nM	0.0295 s⁻¹	754000 M⁻¹ s⁻¹
B4	104 nM	0.109 s⁻¹	1.05e+06 M⁻¹ s⁻¹
B5	22.5 nM	0.018 s⁻¹	799000 M⁻¹ s⁻¹
B6	33.1 nM	0.0244 s⁻¹	737000 M⁻¹ s⁻¹
B7	110 nM	0.0525 s⁻¹	478000 M⁻¹ s⁻¹
B8	80.7 nM	0.0455 s⁻¹	564000 M⁻¹ s⁻¹
B9	57.8 nM	0.056 s⁻¹	970000 M⁻¹ s⁻¹
B10	145 nM	0.0998 s⁻¹	689000 M⁻¹ s⁻¹
B11	39.1 nM	0.0432 s⁻¹	1.11e+06 M⁻¹ s⁻¹
B12	129 nM	0.0865 s⁻¹	671000 M⁻¹ s⁻¹
B13	59.1 nM	0.0573 s⁻¹	969000 M⁻¹ s⁻¹
B14	146 nM	0.0981 s⁻¹	673000 M⁻¹ s⁻¹
B15	17.9 nM	0.0211 s⁻¹	1.18e+06 M⁻¹ s⁻¹
B16	95.2 nM	0.0441 s⁻¹	463000 M⁻¹ s⁻¹
B17	110 nM	0.0525 s⁻¹	479000 M⁻¹ s⁻¹
B18	113 nM	0.0464 s⁻¹	409000 M⁻¹ s⁻¹
B19	443 nM	0.136 s⁻¹	306000 M⁻¹ s⁻¹
B20	125 nM	0.0776 s⁻¹	622000 M⁻¹ s⁻¹
B21	205 nM	0.078 s⁻¹	380000 M⁻¹ s⁻¹
B22	217 nM	0.0737 s⁻¹	340000 M⁻¹ s⁻¹
B23	194 nM	0.106 s⁻¹	546000 M⁻¹ s⁻¹
B24	191 nM	0.0964 s⁻¹	504000 M⁻¹ s⁻¹
